Results from patent US9962447.

Tests used:
Test in all cases: cell-based or functional assay
[1] = target: human DOP receptor (human) (UniProt P41143)
[2] = target: human MOP receptor (human) (UniProt P35372)
[3] = target: human NOP recombinant receptor (N/OFQ peptide receptor) (human) (UniProt P41146)
[4] = target: human KOP receptor (human) (UniProt P41145)
[5] = target: native mouse NOP receptor (mouse vas deferens) (mouse) (UniProt P35377)
Chain of native mouse NOP receptor (mouse vas deferens) (mouse) (P35377 whole entry): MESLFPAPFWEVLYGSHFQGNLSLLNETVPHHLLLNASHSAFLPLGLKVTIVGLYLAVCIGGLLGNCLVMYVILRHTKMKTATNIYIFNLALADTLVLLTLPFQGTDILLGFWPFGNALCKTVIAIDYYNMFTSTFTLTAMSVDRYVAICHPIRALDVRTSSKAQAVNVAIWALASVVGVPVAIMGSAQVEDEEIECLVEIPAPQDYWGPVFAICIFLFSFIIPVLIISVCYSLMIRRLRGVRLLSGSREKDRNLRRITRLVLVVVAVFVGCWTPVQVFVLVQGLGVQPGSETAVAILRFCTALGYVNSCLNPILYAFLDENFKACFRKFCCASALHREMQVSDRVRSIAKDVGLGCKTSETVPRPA

Chain of human NOP recombinant receptor (N/OFQ peptide receptor) (human) (P41146 whole entry): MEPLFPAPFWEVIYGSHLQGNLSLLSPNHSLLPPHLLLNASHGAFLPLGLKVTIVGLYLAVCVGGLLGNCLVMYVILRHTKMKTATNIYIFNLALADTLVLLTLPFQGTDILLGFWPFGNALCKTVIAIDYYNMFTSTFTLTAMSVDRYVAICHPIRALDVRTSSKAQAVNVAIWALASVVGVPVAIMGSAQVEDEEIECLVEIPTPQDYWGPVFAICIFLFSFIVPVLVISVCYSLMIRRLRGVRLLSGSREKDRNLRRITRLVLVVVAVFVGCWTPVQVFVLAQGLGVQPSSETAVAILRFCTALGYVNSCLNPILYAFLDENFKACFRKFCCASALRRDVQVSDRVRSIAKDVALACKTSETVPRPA
Chain of human KOP receptor (human) (P41145 whole entry): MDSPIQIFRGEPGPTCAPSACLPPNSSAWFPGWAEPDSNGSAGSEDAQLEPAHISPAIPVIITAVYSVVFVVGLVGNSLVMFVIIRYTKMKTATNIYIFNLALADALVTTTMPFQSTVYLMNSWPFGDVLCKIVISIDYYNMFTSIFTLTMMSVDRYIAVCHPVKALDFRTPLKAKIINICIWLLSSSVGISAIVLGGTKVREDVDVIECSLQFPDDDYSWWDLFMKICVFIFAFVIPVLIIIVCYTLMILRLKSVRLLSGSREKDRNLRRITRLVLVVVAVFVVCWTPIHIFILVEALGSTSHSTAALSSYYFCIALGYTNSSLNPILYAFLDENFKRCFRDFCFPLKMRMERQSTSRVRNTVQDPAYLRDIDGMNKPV
Chain of human MOP receptor (human) (P35372 whole entry): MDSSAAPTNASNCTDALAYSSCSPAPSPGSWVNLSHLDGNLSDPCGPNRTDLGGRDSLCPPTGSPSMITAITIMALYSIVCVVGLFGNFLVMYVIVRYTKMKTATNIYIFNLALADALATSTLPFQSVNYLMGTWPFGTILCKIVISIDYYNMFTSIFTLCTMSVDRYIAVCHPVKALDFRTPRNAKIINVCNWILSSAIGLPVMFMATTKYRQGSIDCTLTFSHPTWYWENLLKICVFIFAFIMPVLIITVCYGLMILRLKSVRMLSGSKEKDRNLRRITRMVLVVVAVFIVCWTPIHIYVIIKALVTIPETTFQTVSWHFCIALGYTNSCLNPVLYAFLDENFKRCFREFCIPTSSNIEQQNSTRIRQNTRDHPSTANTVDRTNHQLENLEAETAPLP
Chain of human DOP receptor (human) (P41143 whole entry): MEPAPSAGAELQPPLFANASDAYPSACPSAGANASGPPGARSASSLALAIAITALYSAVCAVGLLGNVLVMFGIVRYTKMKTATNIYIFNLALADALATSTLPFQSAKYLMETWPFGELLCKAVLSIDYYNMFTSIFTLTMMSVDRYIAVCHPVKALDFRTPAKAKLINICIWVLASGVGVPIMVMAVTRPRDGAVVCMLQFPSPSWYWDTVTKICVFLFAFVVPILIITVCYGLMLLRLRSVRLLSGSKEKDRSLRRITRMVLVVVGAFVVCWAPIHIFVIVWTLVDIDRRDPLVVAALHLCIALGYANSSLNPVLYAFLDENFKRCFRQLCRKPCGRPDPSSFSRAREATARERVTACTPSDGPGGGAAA

Substance: DPDPE (peptide)
- calcium mobilization, maximal effects [1]: 86%
- calcium mobilization, pEC50 (pEC50 (-log10 M)) [1]: 9.57
- calcium mobilization, potency [2]: > 1000 nM
- calcium mobilization, potency [3]: > 1000 nM
- calcium mobilization, potency [4]: > 1000 nM

Substance: nociceptin/orphanin FQ (N/OFQ) peptide (from UniProt Q13519 20-176)
- calcium mobilization, potency [1]: > 1000 nM
- calcium mobilization, potency [2]: > 1000 nM
- electrically stimulated mouse vas deferens, Emax (% inhibition of control twitch) [5]: 88
- electrically stimulated mouse vas deferens, pEC50 (pEC50 (-log10 M)) [5]: 7.37
- mouse vas deferens from NOP(+/+) mice, Emax [5]: 92%
- mouse vas deferens from NOP(+/+) mice, pEC50 (pEC50 (-log10 M)) [5]: 7.68
- calcium mobilization, potency [4]: > 1000 nM

Substance: PWT2-N/OFQ (supramolecular aggregate of the PWT2 maleimido core with [Cys18]N/OFQ-NH2) (from UniProt Q13519 20-176)
- calcium mobilization, potency [1]: > 1000 nM
- calcium mobilization, potency [2]: > 1000 nM
- electrically stimulated mouse vas deferens, Emax (% inhibition of control twitch) [5]: 93
- electrically stimulated mouse vas deferens, pEC50 (pEC50 (-log10 M)) [5]: 7.78
- mouse vas deferens from NOP(+/+) mice, Emax [5]: 91%
- mouse vas deferens from NOP(+/+) mice, pEC50 (pEC50 (-log10 M)) [5]: 7.92
- calcium mobilization, potency [4]: > 1000 nM

Substance: dermorphin (peptide)
- calcium mobilization, potency [1]: > 1000 nM
- calcium mobilization, maximal effects [2]: 135%
- calcium mobilization, potency [3]: > 1000 nM
- calcium mobilization, potency [4]: > 1000 nM

Substance: dynorphin A (from UniProt P01213 207-223) (peptide)
- calcium mobilization, pEC50 (pEC50 (-log10 M)) [2]: 6.67
- calcium mobilization, potency [3]: > 1000 nM
